Measurements from US20210317456.

What was measured:
[1] = system: IgA (Homo sapiens); test: filter; details: Zorbax, SB18, 37 C
[2] = system: IgD (Homo sapiens); test: filter; details: Zorbax, SB18, 37 C
[3] = system: IgG1-Fc (Homo sapiens), P01857-1; test: filter; details: n (P) = NapdU; Zorbax, SB18, 37 C
[4] = system: IgG2-Fc (Homo sapiens), P01859-1; test: filter; details: n (P) = NapdU; Zorbax, SB18, 37 C
[5] = system: IgG3-Fc (Homo sapiens), P01860-1; test: filter; details: n (P) = NapdU; Zorbax, SB18, 37 C
[6] = system: IgG4-Fc (Homo sapiens), P01861-1; test: filter; details: n (P) = NapdU; Zorbax, SB18, 37 C
[7] = system: IgM (Homo sapiens); test: filter; details: Zorbax, SB18, 37 C
[8] = system: Total IgG (monkey) (monkey); test: filter; details: Zorbax, SB18, 37 C
[9] = system: Total IgG (rabbit) (Oryctolagus cuniculus); test: filter; details: Zorbax, SB18, 37 C
[10] = system: β-FGFR fusion (Fc fusion protein) (Homo sapiens); test: filter; details: Zorbax, SB18, 37 C
[11] = system: IgG1-Kappa (Homo sapiens), P01857-1+P01834; test: pulldown; details: Protein L beads
[12] = system: IgG3-Kappa (Homo sapiens), P01860-1+P01834; test: pulldown; details: Protein L beads
[13] = system: IgG4-Kappa (Homo sapiens), P01861-1+P01834; test: pulldown; details: Protein L beads
[14] = system: Immunoglobulin G (total IgG); test: pulldown
[15] = system: IgA (Homo sapiens); test: pulldown; details: Zorbax beads, SB18, 37C
[16] = system: IgD (Homo sapiens); test: pulldown; details: Zorbax beads, SB18, 37C
[17] = system: IgG1-Fc (Homo sapiens), P01857-1; test: pulldown; details: 37C, bead partitioning
[18] = system: IgG2-Fc (Homo sapiens), P01859-1; test: pulldown; details: 37C, bead partitioning
[19] = system: IgG3-Fc (Homo sapiens), P01860-1; test: pulldown; details: 37C, bead partitioning
[20] = system: IgG4-Fc (Homo sapiens), P01861-1; test: pulldown; details: 37C, bead partitioning
[21] = system: IgM (Homo sapiens); test: pulldown; details: Zorbax beads, SB18, 37C
[22] = system: Total IgG (monkey) (monkey); test: pulldown; details: Zorbax beads, SB18, 37C
[23] = system: Total IgG (rabbit) (Oryctolagus cuniculus); test: pulldown; details: Zorbax beads, SB18, 37C
[24] = system: β-FGFR fusion (Fc fusion protein) (Homo sapiens); test: pulldown; details: 37C, bead partitioning
[25] = system: IgG1 (mouse) (Mus musculus); test: pulldown; details: P = 2NapdU; Protein L beads, SB17; printed as 3E07 (minus sign missing)
[26] = system: IgM (cow) (Bos taurus); test: pulldown; details: P = 2NapdU; Zorbax beads, SB18, 37C
[27] = system: Total IgG (cow) (Bos taurus); test: pulldown; details: P = 2NapdU; Zorbax beads, SB18, 37C
[28] = system: Total IgG (goat) (Capra hircus); test: pulldown; details: P = 2NapdU; Zorbax beads, SB18, 37C
[29] = system: Total IgG (mouse) (Mus musculus); test: pulldown; details: P = 2NapdU; Zorbax beads, SB18, 37C
[30] = system: Total IgG (sheep) (Ovis aries); test: pulldown; details: P = 2NapdU; Zorbax beads, SB18, 37C
[31] = system: Immunoglobulin G (total IgG) (Homo sapiens); test: filter
[32] = n (P) = NapdU, SB18, 5 mM MgCl2, 37 C
[33] = n (P) = 2NapdU, SB18, 5 mM MgCl2, 37 C
[34] = n (P) = NapdU, considered no binding

Chain of IgG2-Fc (Homo sapiens), P01859-1 (P01859 other isoform, or with tags, fused parts or gaps): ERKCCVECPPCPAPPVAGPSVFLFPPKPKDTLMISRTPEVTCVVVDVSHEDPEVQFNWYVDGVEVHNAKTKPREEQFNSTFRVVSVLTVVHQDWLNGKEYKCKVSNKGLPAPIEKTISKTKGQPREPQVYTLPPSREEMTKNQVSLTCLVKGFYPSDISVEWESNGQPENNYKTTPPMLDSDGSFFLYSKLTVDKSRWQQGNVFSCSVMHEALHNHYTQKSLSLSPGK
Chain of IgG3-Fc (Homo sapiens), P01860-1 (P01860 other isoform, or with tags, fused parts or gaps): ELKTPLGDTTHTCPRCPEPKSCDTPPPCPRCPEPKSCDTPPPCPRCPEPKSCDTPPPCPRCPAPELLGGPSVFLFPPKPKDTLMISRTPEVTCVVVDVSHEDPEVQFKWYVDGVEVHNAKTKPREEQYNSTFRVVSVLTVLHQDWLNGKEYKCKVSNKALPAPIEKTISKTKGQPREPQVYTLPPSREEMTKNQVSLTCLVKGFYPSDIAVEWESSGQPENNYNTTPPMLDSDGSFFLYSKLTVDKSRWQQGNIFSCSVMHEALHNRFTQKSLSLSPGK
Chain of IgG4-Kappa (Homo sapiens), P01861-1+P01834 (P01861 other isoform, or with tags, fused parts or gaps, chain 1 of 2, other chains not shown): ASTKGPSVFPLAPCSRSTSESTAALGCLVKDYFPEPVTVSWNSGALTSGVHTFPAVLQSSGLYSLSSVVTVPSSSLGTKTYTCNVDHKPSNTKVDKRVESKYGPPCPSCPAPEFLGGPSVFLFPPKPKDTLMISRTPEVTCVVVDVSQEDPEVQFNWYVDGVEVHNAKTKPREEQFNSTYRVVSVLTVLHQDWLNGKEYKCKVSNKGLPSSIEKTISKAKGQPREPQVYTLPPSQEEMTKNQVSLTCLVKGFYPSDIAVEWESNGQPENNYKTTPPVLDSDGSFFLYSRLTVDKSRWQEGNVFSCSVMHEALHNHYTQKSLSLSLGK
Chain of IgG3-Kappa (Homo sapiens), P01860-1+P01834 (P01860 other isoform, or with tags, fused parts or gaps, chain 1 of 2, other chains not shown): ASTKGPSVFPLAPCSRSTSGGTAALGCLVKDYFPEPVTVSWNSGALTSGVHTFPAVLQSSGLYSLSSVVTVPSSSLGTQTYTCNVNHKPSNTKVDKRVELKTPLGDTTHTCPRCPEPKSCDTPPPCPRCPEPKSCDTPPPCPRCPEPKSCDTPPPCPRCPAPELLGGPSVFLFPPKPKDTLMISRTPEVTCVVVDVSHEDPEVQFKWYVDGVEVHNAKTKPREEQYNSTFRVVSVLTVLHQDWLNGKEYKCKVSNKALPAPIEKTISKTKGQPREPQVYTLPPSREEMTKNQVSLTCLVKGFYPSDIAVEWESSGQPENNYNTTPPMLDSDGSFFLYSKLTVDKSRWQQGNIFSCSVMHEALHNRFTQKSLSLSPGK
Chain of IgG4-Fc (Homo sapiens), P01861-1 (P01861 other isoform, or with tags, fused parts or gaps): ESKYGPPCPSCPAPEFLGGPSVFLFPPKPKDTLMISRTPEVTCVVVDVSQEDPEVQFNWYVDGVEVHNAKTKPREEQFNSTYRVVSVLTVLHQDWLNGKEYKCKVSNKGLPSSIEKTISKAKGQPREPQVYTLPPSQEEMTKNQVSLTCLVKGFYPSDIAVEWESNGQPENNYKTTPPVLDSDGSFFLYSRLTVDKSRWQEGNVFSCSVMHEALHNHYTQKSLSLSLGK

GCCTGCACGATGGCGAACTCCCTGAATGCTCTTGTCTTAAGTCCCCAACA [14125-144_3]
Kd ([1]; n (P) = NapdU): 0.03 µM
Kd ([2]; n (P) = NapdU): 0.6 µM
Kd [3]: 0.04 µM
Kd [4]: 0.008 µM
Kd [5]: 0.005 µM
Kd [6]: 0.02 µM
Kd ([7]; n (P) = NapdU): 0.04 µM
Kd ([8]; n (P) = NapdU): 0.08 µM
Kd ([9]; n (P) = NapdU): 0.04 µM
Kd ([10]; n (P) = NapdU): 0.003 µM
Kd ([11]; n (P) = NapdU, SB17, 37 C): 0.02 µM
Kd ([12]; n (P) = NapdU, SB17, 37 C): 0.004 µM
Kd ([13]; n (P) = NapdU, SB17, 37 C): 0.005 µM
Kd ([14]; P = NapdU at all n positions, SB18, 37C, 18.8 nM in Table 6): 0.0163 µM

CCTCCATACGGTACGATTTTCAGTTGGATCCAGTACCTGGCTGGAGAGAA [5406-56_3]
Kd ([1]; n (P) = NapdU): 0.2 µM
Kd [3]: 0.002 µM
Kd [5]: 0.4 µM
Kd ([7]; n (P) = NapdU): 0.1 µM
Kd ([10]; n (P) = NapdU): 0.003 µM
Kd ([11]; n (P) = NapdU, SB17, 37 C): 0.002 µM
Kd ([12]; n (P) = NapdU, SB17, 37 C): 0.08 µM
Kd ([13]; n (P) = NapdU, SB17, 37 C): 0.02 µM
Kd ([14]; P = NapdU at all n positions, SB18, 5 mM MgCl2, 37C, bead partitioning, 4.54 nM in Table 2): 0.00313 µM

TGGCGAACTCCCTGAATGCTCTTGTCTT [14125-144_30]
Kd ([15]; P = NapdU): 0.1 µM
Kd ([16]; P = NapdU): 0.08 µM
Kd ([17]; P = NapdU): 0.03 µM
Kd ([11]; P = NapdU, SB17, 37C): 0.04 µM
Kd ([18]; P = NapdU): 0.007 µM
Kd ([19]; P = NapdU): 0.002 µM
Kd ([12]; P = NapdU, SB17, 37C): 0.008 µM
Kd ([20]; P = NapdU): 0.03 µM
Kd ([13]; P = NapdU, SB17, 37C): 0.004 µM
Kd ([21]; P = NapdU): 0.006 µM
Kd ([14]; P = NapdU, SB18, 37C, 3E-08 M in Table 7): 0.00818 µM
Kd ([22]; P = NapdU): 0.06 µM
Kd ([23]; P = NapdU): 0.1 µM
Kd ([24]; P = NapdU): 0.004 µM

GCGGTTACCTTGTAGGCGATTATGGGCA [5334-8_34]
Kd ([15]; P = 2NapdU): 0.04 µM
Kd ([16]; P = 2NapdU): 0.06 µM
Kd [25]: 0.3 µM
Kd ([17]; P = 2NapdU): 0.005 µM
Kd ([11]; P = 2NapdU, SB17, 37C): 0.02 µM
Kd ([18]; P = 2NapdU): 0.002 µM
Kd ([19]; P = 2NapdU): 0.001 µM
Kd ([12]; P = 2NapdU, SB17, 37C): 0.004 µM
Kd ([20]; P = 2NapdU): 0.002 µM
Kd ([13]; P = 2NapdU, SB17, 37C): 0.003 µM
Kd ([21]; P = 2NapdU): 0.0006 µM
Kd [26]: 0.04 µM
Kd ([14]; P = 2NapdU, SB18, 37C, 8E-09 M in Table 7): 0.00971 µM
Kd [27]: 0.5 µM
Kd [28]: 0.6 µM
Kd ([22]; P = 2NapdU): 0.006 µM
Kd [29]: 0.2 µM
Kd ([23]; P = 2NapdU): 0.009 µM
Kd [30]: 0.5 µM
Kd ([24]; P = 2NapdU): 0.002 µM

GGTACGATTTTCAGTTGGATCCAGTAC [5406-56_48]
Kd ([15]; P = NapdU): 0.2 µM
Kd ([16]; P = NapdU): 0.5 µM
Kd ([17]; P = NapdU): 0.003 µM
Kd ([11]; P = NapdU, SB17, 37C): 0.002 µM
Kd ([19]; P = NapdU): 0.07 µM
Kd ([12]; P = NapdU, SB17, 37C): 0.1 µM
Kd ([20]; P = NapdU): 0.03 µM
Kd ([13]; P = NapdU, SB17, 37C): 0.05 µM
Kd ([21]; P = NapdU): 0.07 µM
Kd ([14]; P = NapdU, SB18, 37C, 6E-09 M in Table 7): 0.00581 µM
Kd ([22]; P = NapdU): 0.1 µM
Kd ([24]; P = NapdU): 0.004 µM

GATGGCGAACTCCCTGAATGCTCTTGTCTTAAGTCCCCAACA [14125-144_7]
Kd [31, 32]: 0.00696 µM

TCCAAGACTGCGGTTACCTTGTAGGCGATTATGGGCAG [5334-8_9]
Kd [31, 33]: 0.00838 µM

GCCTGCACGATGGCGAACTCCCTGAATGCTCTTGTCTTAAGTCCCCAA [14125-144_12]
Kd [31, 32]: 0.0172 µM

ATGGCGAACTCCCTGAATGCTCTTGTCTT [14125-144_29]
Kd [31, 32]: 0.0116 µM

GATGGCGAACTCCCTGAATGCTCTTGTCTTAA [14125-144_20]
Kd [31, 32]: 0.00667 µM

GATGGCGAACTCCCTGAATGCTCTTGTC [14125-144_36]
Kd [31, 34]: > 1 µM

GCCTGCACGATGGCGAACTCCCTGAATGCTCTTGTCTTAAGTCCCC [14125-144_13]
Kd [31, 32]: 0.0143 µM

ACGGTACGATTTTCAGTTGGATCCAGTACCT [5406-56_34]
Kd [31, 32]: 0.00336 µM

CGGTACGATTTTCAGTTGGATCCAGTAC [5406-56_47]
Kd [31, 32]: 0.0057 µM

TGCGGTTACCTTGTAGGCGATTATGGGCAG [5334-8_24]
Kd [31, 33]: 0.00551 µM

AGACTGCGGTTACCTTGTAGGCGATTATGGGCA [5334-8_28]
Kd [31, 33]: 0.00845 µM

CGGCACTCCACATCCAAGACTGCGGTTACCTTGTAGGCGATTATGGGCAG [5334-8_3]
Kd ([1]; n (P) = 2NapdU): 0.2 µM
Kd ([2]; n (P) = 2NapdU): 0.6 µM
Kd ([7]; n (P) = 2NapdU): 0.1 µM
Kd ([8]; n (P) = 2NapdU): 0.02 µM
Kd ([9]; n (P) = 2NapdU): 0.02 µM
Kd ([10]; n (P) = 2NapdU): 0.009 µM
Kd ([11]; n (P) = 2NapdU, SB17, 37 C): 0.04 µM
Kd ([12]; n (P) = 2NapdU, SB17, 37 C): 0.007 µM
Kd ([13]; n (P) = 2NapdU, SB17, 37 C): 0.01 µM
Kd ([14]; P = 2NapdU at all n positions, SB18, 37C, 12.2 nM in Table 4): 0.00752 µM

ACTGCGGTTACCTTGTAGGCGATTATGGGCAG [5334-8_22]
Kd [31, 33]: 0.00577 µM

GGCGAACTCCCTGAATGCTCTTGTC [14125-144_39]
Kd [31, 34]: > 1 µM

CGGTACGATTTTCAGTTGGATCCAGTACCT [5406-56_35]
Kd [31, 32]: 0.00342 µM

TACGGTACGATTTTCAGTTGGATCCAGTACCT [5406-56_33]
Kd [31, 32]: 0.00531 µM

GGTACGATTTTCAGTTGGATCCAGTACC [5406-56_42]
Kd [31, 32]: 0.00497 µM

TACGGTACGATTTTCAGTTGGATCCAGTAC [5406-56_45]
Kd [31, 32]: 0.0218 µM

GGTACGATTTTCAGTTGGATCCAGTACCTG [5406-56_30]
Kd [31, 32]: 0.00322 µM

GTACGATTTTCAGTTGGATCCAGTACC [5406-56_43]
Kd [31, 32]: 0.011 µM

CGGCACTCCACATCCAAGACTGCGGTTACCTTGTAGGCGATTAT [5334-8_14]
Kd ([31]; n (P) = 2NapdU, considered no binding): > 1 µM
